{
  "source": "patent CN112724255A",
  "about": "(CHENGDU JINKUN BIOTECHNOLOGY CO LTD, dated 2021)",
  "binders": {"B1": {"name": "96ScFv 单链抗体 (靶向癌胚抗原的小分子抗体) (scFv)", "scFv": "MGQVRLRESGPSLVKPSQTLSLTCTVSGFSLTKYGVSWVRQAPGKALEWLGGVSSGALTAYNTALQSRLSVTRDTSKSQFSLSLSSVTTEDTAIYYCAKSVNGDSVPYGLDYWSPGLLITVSSGGGGSGGGGSGGGGSQAVLTQPSSVSGSLGQRVSITCSGSSSNIGGNAYVGWYQQVPGSAPRLLISATTDRASGIPDRFFGSRSGNTATLTISSLQAEDEADYYCASYQSTYSGVFGSGTMLAVLGTVAAPSVFHHHHHHHLGGC", "notes": "Expressed in E. coli from pET22-96ScFv and purified on Ni resin; The vector adds a C-terminal His tag and a cysteine; also called CEA小分子抗体; 本发明抗体片段"}},
  "key": {"癌胚抗原 (CEA) 抗原 [1]": {"target": "T1, 癌胚抗原 (CEA) 抗原 (UniProt P06731 35-685, limits assumed)", "T1 construct": "The CEA antigen used for coating is not described further", "T1 sequence (looked up)": "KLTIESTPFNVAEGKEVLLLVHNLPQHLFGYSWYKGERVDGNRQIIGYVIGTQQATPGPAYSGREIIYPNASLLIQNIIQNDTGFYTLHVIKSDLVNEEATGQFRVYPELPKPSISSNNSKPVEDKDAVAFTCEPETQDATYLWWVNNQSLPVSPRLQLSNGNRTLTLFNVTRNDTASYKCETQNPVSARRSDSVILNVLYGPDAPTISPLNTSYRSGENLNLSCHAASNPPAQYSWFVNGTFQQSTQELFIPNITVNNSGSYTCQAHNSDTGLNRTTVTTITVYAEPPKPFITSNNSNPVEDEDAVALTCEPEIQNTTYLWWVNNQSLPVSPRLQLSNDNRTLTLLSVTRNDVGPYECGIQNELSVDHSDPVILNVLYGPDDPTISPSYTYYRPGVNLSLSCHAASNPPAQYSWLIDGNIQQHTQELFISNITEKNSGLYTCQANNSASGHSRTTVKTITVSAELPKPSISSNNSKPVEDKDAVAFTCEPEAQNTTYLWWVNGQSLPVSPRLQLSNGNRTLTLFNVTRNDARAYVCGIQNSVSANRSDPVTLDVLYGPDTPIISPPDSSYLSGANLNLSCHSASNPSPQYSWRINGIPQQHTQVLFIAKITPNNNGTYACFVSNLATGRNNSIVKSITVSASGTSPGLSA", "assay": "ELISA, CEA antigen coated, detection with anti-His-HRP"}, "癌胚抗原 (CEA) 抗原 [2]": {"target": "T1, 癌胚抗原 (CEA) 抗原", "assay": "ELISA, CEA antigen coated; converted from 183.6 ng/ml with the relative molecular mass 27486 g/mol"}},
  "data": [
    {"binder": "B1", "values": [
      {"measurement": "EC50", "setting": "癌胚抗原 (CEA) 抗原 [1]", "result": 0.184, "unit": "µg/mL"},
      {"measurement": "EC50", "setting": "癌胚抗原 (CEA) 抗原 [2]", "result": 6.7, "unit": "nM"}
    ]}
  ]
}
